In PMC3307385 one finds Kd data, which are given here for one substance.

The target of the assay is mouse soluble recombinant SLLP1 (mouse) (UniProt Q9D9X8). Briefly: SPR. For orientation: SPR reads the build-up and loss of mass on a sensor chip optically.
Sequence of UniProt Q9D9X8 (Q9D9X8 95-221): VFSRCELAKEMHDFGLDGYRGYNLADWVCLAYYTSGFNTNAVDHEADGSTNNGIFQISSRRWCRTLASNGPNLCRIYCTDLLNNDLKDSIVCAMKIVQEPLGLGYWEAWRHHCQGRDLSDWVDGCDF

As usually defined, the Kd is the free concentration of one partner at which half of the binding sites on the other are occupied at equilibrium, for simple one-to-one binding. Consider “recombinant mouse SAS1B (V2), full length doublet (~51, ~50 kD) (natural protein)”, for which the Kd worked out at 0.32 nM.
